# T1: hIL4R-His, Interleukin-4 receptor subunit alpha (Homo sapiens) aa 27-227 (Homo sapiens, UniProt P24394 27-227)
# T1 construct: range 27-227; not shown: His tag as the name implies
# T1 sequence (looked up): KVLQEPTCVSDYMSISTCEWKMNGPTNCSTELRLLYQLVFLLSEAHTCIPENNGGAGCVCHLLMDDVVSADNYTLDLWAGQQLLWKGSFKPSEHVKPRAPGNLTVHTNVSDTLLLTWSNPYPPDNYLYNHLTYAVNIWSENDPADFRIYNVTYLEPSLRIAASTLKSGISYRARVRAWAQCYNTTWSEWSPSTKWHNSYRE
# T2: hCD38-Avi, ADP-ribosyl cyclase/cyclic ADP-ribose hydrolase 1 (Homo sapiens) aa 43-300 (Homo sapiens, UniProt P28907 43-300)
# T2 construct: range 43-300; not shown: Avi tag as the name implies
# T2 sequence (looked up): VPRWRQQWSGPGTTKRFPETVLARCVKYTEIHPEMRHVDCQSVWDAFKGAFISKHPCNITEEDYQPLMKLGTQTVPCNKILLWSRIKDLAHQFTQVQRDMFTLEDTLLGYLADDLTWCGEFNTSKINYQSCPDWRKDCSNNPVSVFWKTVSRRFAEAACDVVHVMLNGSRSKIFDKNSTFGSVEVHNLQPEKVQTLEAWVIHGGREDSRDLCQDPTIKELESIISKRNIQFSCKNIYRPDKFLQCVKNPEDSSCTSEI
# T3: IL5R-His, Interleukin-5 receptor subunit alpha (Homo sapiens) aa 22-342 (Homo sapiens, UniProt Q01344 22-342)
# T3 construct: not shown: His tag as the name implies
# T3 sequence (looked up): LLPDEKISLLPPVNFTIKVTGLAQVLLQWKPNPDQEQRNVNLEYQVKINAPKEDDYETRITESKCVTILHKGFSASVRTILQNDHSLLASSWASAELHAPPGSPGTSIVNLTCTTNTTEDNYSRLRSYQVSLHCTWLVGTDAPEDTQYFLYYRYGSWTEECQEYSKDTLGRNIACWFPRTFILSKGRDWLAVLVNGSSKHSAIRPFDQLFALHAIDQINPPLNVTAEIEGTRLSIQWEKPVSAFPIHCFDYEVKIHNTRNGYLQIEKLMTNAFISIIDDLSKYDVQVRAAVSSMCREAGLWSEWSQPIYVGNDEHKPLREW
# B1: 02-004, bivalent bispecific chimeric antibody that specifically binds to PD1 and CD20 (bispecific antibody, human IgG1, kappa, L234A L235A)
# heavy 1: QVQLVQSGGGLVQPGGSLRLSCAASGFTFSSYWMYWVRQVPGKGLEWVSAIDTGGGRTYYADSVKGRFAISRVNAKNTMYLQMNSLRAEDTAVYYCARDEGGGTGWGVLKDWPYGLDAWGQGTLVTVSSASTKGPSVFPLAPSSKSTSGGTAALGCLVKDYFPEPVTVSWNSGALTSGVHTFPAVLQSSGLYSLSSVVTVPSSSLGTQTYICNVNHKPSNTKVDKRVEPKSCDKTHTCPPCPAPEAAGGPSVFLFPPKPKDTLYITREPEVTCVVVDVSHEDPEVKFNWYVDGVEVHNAKTKPREEQYNSTYRVVSVLTVLHQDWLNGKEYKCKVSNKALPAPIEKTISKAKGQPREPQVCTLPPSRDELTKNQVSLSCAVKGFYPSDIAVEWESNGQPENNYKTTPPVLDSDGSFFLVSKLTVDKSRWQQGNVFSCSVMHEALHNHYTQKSLSLSPGK
# light 1: QPVLTQPLSVSVALGQTARITCGGNNIGSKNVHWYQQKPGQAPVLVIYRDSNRPSGIPERFSGSNSGNTATLTISRAQAGDEADYYCQVWDSSTAVFGTGTKLTVLQRTVAAPSVFIFPPSDEQLKSGTASVVCLLNNFYPREAKVQWKVDNALQSGNSQESVTEQDSKDSTYSLSSTLTLSKADYEKHKVYACEVTHQGLSSPVTKSFNRGEC
# heavy 2: not shown
# light 2: DIQMTQSPSSLSASVGDRVTITCRASSSVSYMHWYQQKPGKAPKPLIYAPSNLASGVPSRFSGSGSGTDFTLTISSLQPEDFATYYCQQWSFNPPTFGQGTKVEIKQRQVKPEAWLSSGPSPGPGRLQLVCHVSGFYPKPVWVMWMRGEQEQQGTQLGDILPNANWTWYLRATLDVADGEAAGLSCRVKHSSLEGQDIILYWRGSC
# notes: Produced in CHO cells
# B2: 02-007, bivalent bispecific chimeric antibody that specifically binds to PD1 and CSF1R (bispecific antibody, human IgG1, kappa, L234A L235A)
# heavy 1: QVQLVESGGGLVRPGGSLRLSCAASEFTFDDYAMSWVRQAPGKGLEWVSAISWNGGSTNYADSVKGRFTISRDNAKNSLYLQMNSLRAEDTALYYCASTVEVAHRRLYKYLEVWGQGTLVTVSSASTKGPSVFPLAPSSKSTSGGTAALGCLVKDYFPEPVTVSWNSGALTSGVHTFPAVLQSSGLYSLSSVVTVPSSSLGTQTYICNVNHKPSNTKVDKRVEPKSCDKTHTCPPCPAPEAAGGPSVFLFPPKPKDTLYITREPEVTCVVVDVSHEDPEVKFNWYVDGVEVHNAKTKPREEQYNSTYRVVSVLTVLHQDWLNGKEYKCKVSNKALPAPIEKTISKAKGQPREPQVCTLPPSRDELTKNQVSLSCAVKGFYPSDIAVEWESNGQPENNYKTTPPVLDSDGSFFLVSKLTVDKSRWQQGNVFSCSVMHEALHNHYTQKSLSLSPGK
# light 1: QAGLTQPPSVSVAPGQTARITCGGNNIGSKSVHWYQQKPGQAPVLVVYGDSDRPSGIPERFSGSNSGNTATLTISRVEAGDEADYYCQVWDISSDHVVFGGGTQLTVLRTVAAPSVFIFPPSDEQLKSGTASVVCLLNNFYPREAKVQWKVDNALQSGNSQESVTEQDSKDSTYSLSSTLTLSKADYEKHKVYACEVTHQGLSSPVTKSFNRGEC
# heavy 2: not shown
# light 2: QPVLTQPLSVSVALGQTARITCGGNNIGSKNVHWYQQKPGQAPVLVIYRDSNRPSGIPERFSGSNSGNTATLTISRAQAGDEADYYCQVWDSSTAVFGTGTKLTVLQQRQVKPEAWLSSGPSPGPGRLQLVCHVSGFYPKPVWVMWMRGEQEQQGTQLGDILPNANWTWYLRATLDVADGEAAGLSCRVKHSSLEGQDIILYWRGSC
# notes: Produced in CHO cells
# B3: 02-005, bivalent bispecific chimeric antibody that specifically binds to PD1 and CD20 (bispecific antibody, human IgG1, kappa, L234A L235A)
# heavy 1: EVQLVESGGGLVQPGGSLRLSCAASGYTFTSYNMHWVRQAPGKGLEWVGAIYPGNGDTSYNQKFKGRFTISVDKSKNTLYLQMNSLRAEDTAVYYCARVVYYSNSYWYFDVWGQGTLVTVSSASTKGPSVFPLAPSSKSTSGGTAALGCLVKDYFPEPVTVSWNSGALTSGVHTFPAVLQSSGLYSLSSVVTVPSSSLGTQTYICNVNHKPSNTKVDKRVEPKSCDKTHTCPPCPAPEAAGGPSVFLFPPKPKDTLYITREPEVTCVVVDVSHEDPEVKFNWYVDGVEVHNAKTKPREEQYNSTYRVVSVLTVLHQDWLNGKEYKCKVSNKALPAPIEKTISKAKGQPREPQVCTLPPSRDELTKNQVSLSCAVKGFYPSDIAVEWESNGQPENNYKTTPPVLDSDGSFFLVSKLTVDKSRWQQGNVFSCSVMHEALHNHYTQKSLSLSPGK
# light 1: DIQMTQSPSSLSASVGDRVTITCRASSSVSYMHWYQQKPGKAPKPLIYAPSNLASGVPSRFSGSGSGTDFTLTISSLQPEDFATYYCQQWSFNPPTFGQGTKVEIKRTVAAPSVFIFPPSDEQLKSGTASVVCLLNNFYPREAKVQWKVDNALQSGNSQESVTEQDSKDSTYSLSSTLTLSKADYEKHKVYACEVTHQGLSSPVTKSFNRGEC
# heavy 2: not shown
# light 2: B2 light 2
# notes: Produced in CHO cells
# B4: 02-006, bivalent bispecific chimeric antibody that specifically binds to PD1 and CSF1R (bispecific antibody, human IgG1, kappa, L234A L235A)
# heavy 1: B1 heavy 1
# light 1: B1 light 1
# heavy 2: not shown
# light 2: QAGLTQPPSVSVAPGQTARITCGGNNIGSKSVHWYQQKPGQAPVLVVYGDSDRPSGIPERFSGSNSGNTATLTISRVEAGDEADYYCQVWDISSDHVVFGGGTQLTVLQRQVKPEAWLSSGPSPGPGRLQLVCHVSGFYPKPVWVMWMRGEQEQQGTQLGDILPNANWTWYLRATLDVADGEAAGLSCRVKHSSLEGQDIILYWRGSC
# notes: Produced in CHO cells
# B5: 02-008, bivalent bispecific chimeric antibody that specifically binds to CD20 and CSF1R (bispecific antibody, human IgG1, kappa, L234A L235A)
# heavy 1: B3 heavy 1
# light 1: B3 light 1
# heavy 2: not shown
# light 2: B4 light 2
# notes: Produced in CHO cells
# Target: T1, hIL4R-His, Interleukin-4 receptor …
# Experiment: BLI Octet RED 384; antibody on ProA sensor, antigen 30 ug/ml
row,binding result,Binder
1,no binding (tested: 1154 nM),B1
2,no binding (tested: 1154 nM),B2

# Target: T4, extracellular domain of the human CSF1R protein (hCSF1R_His) (Homo sapiens, UniProt P07333 20-512)
# T4 construct: range 20-512; Molecular weight 57.4 kDa; made in CHO cells; also called hCSF1_His; not shown: C-terminal His and FLAG tags
# Experiment: as above
# T4 sequence (P07333 20-512 limits assumed): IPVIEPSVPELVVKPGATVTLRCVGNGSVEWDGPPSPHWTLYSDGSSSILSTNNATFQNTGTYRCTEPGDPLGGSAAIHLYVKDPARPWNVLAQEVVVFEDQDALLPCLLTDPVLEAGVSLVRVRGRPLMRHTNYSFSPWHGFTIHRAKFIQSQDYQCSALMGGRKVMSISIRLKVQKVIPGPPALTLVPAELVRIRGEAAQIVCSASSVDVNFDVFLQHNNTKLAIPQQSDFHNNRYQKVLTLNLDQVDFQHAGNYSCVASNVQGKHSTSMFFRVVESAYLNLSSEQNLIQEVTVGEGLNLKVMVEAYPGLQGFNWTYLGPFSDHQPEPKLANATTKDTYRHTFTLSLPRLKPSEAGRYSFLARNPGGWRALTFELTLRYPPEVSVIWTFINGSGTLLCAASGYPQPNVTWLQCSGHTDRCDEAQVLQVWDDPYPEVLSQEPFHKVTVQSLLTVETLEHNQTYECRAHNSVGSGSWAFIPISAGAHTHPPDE
row,binding result,Binder
1,no binding (tested: 522.5 nM),B1
2,no binding (tested: 522.5 nM),B3

# Target: T5, Her3-H6F, Receptor tyrosine-protein kinase erbB-3 (Homo sapiens) aa 21-643 (Homo sapiens, UniProt P21860 21-643)
# T5 construct: not shown: His and FLAG tags implied by the name 'H6F'
# Experiment: as above
# T5 sequence (P21860 21-643 limits assumed): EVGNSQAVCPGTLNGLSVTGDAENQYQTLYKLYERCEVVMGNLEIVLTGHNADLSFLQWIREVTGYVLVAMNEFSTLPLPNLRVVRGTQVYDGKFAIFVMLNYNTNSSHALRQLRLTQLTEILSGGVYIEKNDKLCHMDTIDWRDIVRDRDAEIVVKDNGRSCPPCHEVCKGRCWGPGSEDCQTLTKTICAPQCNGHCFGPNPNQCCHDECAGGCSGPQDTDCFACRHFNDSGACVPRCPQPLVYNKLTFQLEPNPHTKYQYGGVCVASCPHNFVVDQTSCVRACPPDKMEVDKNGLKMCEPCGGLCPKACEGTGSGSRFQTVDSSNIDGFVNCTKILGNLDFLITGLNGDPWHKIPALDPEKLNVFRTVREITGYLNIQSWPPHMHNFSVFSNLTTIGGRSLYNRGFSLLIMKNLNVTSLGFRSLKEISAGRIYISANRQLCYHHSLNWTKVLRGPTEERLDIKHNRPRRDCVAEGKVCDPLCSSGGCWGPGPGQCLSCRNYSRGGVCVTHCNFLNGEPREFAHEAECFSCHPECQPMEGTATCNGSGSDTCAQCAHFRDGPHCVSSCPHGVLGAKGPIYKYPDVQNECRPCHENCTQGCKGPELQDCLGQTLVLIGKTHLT
row,binding result,Binder
1,no binding (tested: 420.8 nM),B1

# Target: T2, hCD38-Avi, ADP-ribosyl cyclase/cyclic …
# Experiment: as above
row,binding result,Binder
1,no binding (tested: 854.7 nM),B1
2,no binding (tested: 854.7 nM),B4
3,no binding (tested: 854.7 nM),B3
4,no binding (tested: 854.7 nM),B5
5,no binding (tested: 854.7 nM),B2

# Target: T3, IL5R-His, Interleukin-5 receptor …
# Experiment: as above
row,binding result,Binder
1,no binding (tested: 757.6 nM),B1
2,no binding (tested: 757.6 nM),B4
3,no binding (tested: 757.6 nM),B3
4,no binding (tested: 757.6 nM),B5
5,no binding (tested: 757.6 nM),B2
